Measurements: patent US20230265215A1 (OMEROS, published 2023)

Assays:
Assay in all cases: solid phase ELISA, against human MASP-2 as reference
MASP-1 = molecular target: T1, MASP-1 (human, UniProt P48740 20-699, limits assumed)
T1 construct: Species read from 'Recombinant human MASP-2 or C1r, C1s, CFD, MASP-1 and MASP-3'
T1 sequence (looked up): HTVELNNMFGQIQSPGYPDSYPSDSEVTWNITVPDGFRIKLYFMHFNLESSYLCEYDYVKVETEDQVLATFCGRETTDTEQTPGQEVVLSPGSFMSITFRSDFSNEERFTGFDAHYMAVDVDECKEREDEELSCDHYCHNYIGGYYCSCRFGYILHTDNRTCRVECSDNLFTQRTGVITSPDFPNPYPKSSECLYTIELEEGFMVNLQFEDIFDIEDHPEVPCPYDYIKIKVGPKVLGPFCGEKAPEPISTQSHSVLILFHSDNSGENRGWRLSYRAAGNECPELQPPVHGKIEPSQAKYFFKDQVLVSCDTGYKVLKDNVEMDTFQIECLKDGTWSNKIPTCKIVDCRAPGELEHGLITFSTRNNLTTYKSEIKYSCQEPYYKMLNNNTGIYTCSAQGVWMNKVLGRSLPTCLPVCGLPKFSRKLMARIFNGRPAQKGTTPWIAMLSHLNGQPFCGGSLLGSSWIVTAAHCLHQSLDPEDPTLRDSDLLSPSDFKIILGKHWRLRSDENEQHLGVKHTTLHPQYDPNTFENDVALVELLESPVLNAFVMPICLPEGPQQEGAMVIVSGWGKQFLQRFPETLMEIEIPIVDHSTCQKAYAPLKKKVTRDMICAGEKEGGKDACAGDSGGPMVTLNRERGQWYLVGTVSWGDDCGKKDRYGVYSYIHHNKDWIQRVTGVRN
From the text: (§1) The apparent dissociation constant (KD) was estimated by nonlinear regression using a 4-parameter logistic model.
(§2) Fold selectivity calculated as KD(related serine protease)/mean KD(MASP-2).

C1r = molecular target: T2, C1r (human, UniProt P00736 18-705, limits assumed)
T2 construct: Species read from 'Recombinant human MASP-2 or C1r, C1s, CFD, MASP-1 and MASP-3'
T2 sequence (looked up): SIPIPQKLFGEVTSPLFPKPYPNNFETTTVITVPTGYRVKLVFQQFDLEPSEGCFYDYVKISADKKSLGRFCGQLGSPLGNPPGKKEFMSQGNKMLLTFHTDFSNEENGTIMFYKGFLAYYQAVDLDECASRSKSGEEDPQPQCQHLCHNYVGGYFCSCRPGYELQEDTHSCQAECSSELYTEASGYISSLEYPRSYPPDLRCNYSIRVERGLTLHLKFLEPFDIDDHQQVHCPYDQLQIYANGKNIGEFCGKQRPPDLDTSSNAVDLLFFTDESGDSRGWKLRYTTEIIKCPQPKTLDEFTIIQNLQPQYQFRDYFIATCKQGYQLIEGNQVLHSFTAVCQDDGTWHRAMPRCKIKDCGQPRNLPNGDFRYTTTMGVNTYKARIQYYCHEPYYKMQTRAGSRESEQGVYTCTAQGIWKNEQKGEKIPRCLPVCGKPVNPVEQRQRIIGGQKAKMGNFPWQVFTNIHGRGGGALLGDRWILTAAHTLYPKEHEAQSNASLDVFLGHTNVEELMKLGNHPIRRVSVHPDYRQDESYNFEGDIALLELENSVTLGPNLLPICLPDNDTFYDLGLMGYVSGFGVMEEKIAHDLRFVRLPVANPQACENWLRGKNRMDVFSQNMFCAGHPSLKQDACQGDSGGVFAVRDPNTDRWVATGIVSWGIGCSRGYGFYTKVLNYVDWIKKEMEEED
From the text: as §1, §2

C1s = molecular target: T3, C1s (human, UniProt P09871 16-688, limits assumed)
T3 construct: Species read from 'Recombinant human MASP-2 or C1r, C1s, CFD, MASP-1 and MASP-3'
T3 sequence (looked up): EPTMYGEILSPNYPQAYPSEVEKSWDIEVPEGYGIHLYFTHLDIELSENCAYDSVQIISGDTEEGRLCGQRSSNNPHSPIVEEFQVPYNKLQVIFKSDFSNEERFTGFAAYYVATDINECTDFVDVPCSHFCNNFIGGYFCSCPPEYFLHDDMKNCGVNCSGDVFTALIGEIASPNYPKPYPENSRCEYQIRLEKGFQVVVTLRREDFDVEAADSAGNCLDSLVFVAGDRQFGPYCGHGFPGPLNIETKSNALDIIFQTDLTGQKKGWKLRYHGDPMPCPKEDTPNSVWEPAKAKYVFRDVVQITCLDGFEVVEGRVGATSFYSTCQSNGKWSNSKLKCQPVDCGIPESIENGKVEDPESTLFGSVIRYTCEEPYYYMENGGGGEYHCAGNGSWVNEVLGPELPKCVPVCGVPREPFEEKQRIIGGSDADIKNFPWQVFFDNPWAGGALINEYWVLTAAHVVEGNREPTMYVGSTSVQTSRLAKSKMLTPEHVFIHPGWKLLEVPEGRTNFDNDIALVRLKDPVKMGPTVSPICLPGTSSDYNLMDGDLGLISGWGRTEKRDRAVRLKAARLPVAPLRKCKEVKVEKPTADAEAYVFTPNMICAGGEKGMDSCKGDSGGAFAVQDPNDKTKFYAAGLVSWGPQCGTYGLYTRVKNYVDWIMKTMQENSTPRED
From the text: as §1, §2

CFD = molecular target: T4, CFD (human, UniProt P00746 26-253, limits assumed)
T4 construct: Species read from 'Recombinant human MASP-2 or C1r, C1s, CFD, MASP-1 and MASP-3'; also called factor D; complement factor D
T4 sequence (P00746 26-253 limits assumed): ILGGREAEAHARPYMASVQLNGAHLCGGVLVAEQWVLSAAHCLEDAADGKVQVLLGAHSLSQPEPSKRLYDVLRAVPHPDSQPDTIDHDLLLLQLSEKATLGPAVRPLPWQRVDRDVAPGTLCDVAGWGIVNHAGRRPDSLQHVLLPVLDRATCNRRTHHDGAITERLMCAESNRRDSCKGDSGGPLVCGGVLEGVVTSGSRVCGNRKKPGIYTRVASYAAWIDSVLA
From the text: as §1, §2

Measured: Fold selectivity (KD related serine protease / mean KD MASP-2)

B1: mAb OMS858 (humanized anti-MASP-2 antibody) (antibody, V domains shown)
VH: QVQLVQSGAEVKKPGASVKVSCKASGYTFTNHHMHWLRQAPGQGLEWIGDIDASDSETHYIEKFKDRATLTIDKSSSTAYMELSSLRSEDTAVYYCARGDITTTLRYFDVWGQGTLVTVSS
VL: DIQLTQSPSSLSASVGDRVTITCSASSSVRYMYWYQQKPGKAPKLLIYDTSNLASGVPSRFSGSGSGTDNTLTISSLQPEDFATYYCQQWSSYPLTFGQGTKVEIKR
notes: also called antibody OMS858; biotinylated OMS858
> 2000 fold: all assays above
